The values that follow come from patent US9717715B2, “Method of combination therapy using an anti-C-Met antibody” (SAMSUNG ELECTRONICS CO., LTD., dated 2017).

Test [1] has as its target c-Met on human cancer cells (human, UniProt P08581). Briefly: cell-based or functional assay.
In test [2] the target is T1, human c-Met protein (human, UniProt P08581). As to the kind of experiment: SPR (Biacore), antibody immobilised on CM5 chip, human c-Met protein injected at 0.39-100 nM. In general terms: In SPR one partner is held on a chip, and binding of the other changes the refractive index at the surface.
For test [3], the target named is T1, human c-Met protein. Briefly: SPR (Biacore), by the method of Example 8.

B1: huAbF46-H4-A1 (U6-HC7) (antibody)
heavy: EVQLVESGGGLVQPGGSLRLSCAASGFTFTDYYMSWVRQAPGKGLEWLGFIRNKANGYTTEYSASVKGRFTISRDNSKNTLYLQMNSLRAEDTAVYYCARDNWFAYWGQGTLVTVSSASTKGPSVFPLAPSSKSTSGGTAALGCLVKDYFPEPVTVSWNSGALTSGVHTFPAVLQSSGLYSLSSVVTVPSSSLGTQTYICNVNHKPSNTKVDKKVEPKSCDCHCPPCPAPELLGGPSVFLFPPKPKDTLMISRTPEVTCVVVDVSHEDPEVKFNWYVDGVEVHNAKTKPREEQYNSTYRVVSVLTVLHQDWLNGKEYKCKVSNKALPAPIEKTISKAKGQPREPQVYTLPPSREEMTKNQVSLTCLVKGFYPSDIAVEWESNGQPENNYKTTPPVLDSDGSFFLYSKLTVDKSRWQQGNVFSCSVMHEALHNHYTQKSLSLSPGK
light: DIQMTQSPSSLSASVGDRVTITCKSSQSLLASGNQNNYLAWYQQKPGKAPKMLIIWASTRVSGVPSRFSGSGSGTDFTLTISSLQPEDFATYYCQQSYSRPYTFGQGTKVEIKRTVAAPSVFIFPPSDEQLKSGTASVVCLLNNFYPREAKVQWKVDNALQSGNSQESVTEQDSKDSTYSLSSTLTLSKADYEKHKVYACEVTHQGLSSPVTKSFNRGEC
B1: in test [1], the “Akt phosphorylation (%) in Caki-1 cells, 5 ug/ml, 30 min” value (shortened to “Akt phosphorylation (%) in Caki-1 cells”) is ≤ 18% and the “relative cell viability (%) of MKN45 cells, 72 h” value (shortened to “relative cell viability (%)”) is ~60%.

B2: huAbF46-H4-A1 (IgG2 hinge) (antibody)
heavy: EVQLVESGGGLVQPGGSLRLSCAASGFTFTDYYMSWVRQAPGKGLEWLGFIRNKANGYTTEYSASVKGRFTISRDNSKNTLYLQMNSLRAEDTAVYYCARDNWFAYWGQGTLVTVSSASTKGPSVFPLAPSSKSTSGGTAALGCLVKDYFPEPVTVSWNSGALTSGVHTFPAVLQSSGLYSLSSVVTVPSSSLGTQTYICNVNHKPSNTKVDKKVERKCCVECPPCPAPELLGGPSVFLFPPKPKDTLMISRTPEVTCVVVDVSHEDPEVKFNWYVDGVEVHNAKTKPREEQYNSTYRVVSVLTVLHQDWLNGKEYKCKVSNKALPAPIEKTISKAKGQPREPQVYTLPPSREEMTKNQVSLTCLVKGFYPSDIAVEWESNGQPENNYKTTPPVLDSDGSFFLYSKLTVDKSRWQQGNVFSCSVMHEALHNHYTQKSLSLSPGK
light: DIQMTQSPSSLSASVGDRVTITCKSSQSLLASGNQNNYLAWYQQKPGKAPKMLIIWASTRVSGVPSRFSGSGSGTDFTLTISSLQPEDFATYYCQQSYSRPYTFGQGTKVEIKRTVAAPSVFIFPPSDEQLKSGTASVVCLLNNFYPREAKVQWKVDNALQSGNSQESVTEQDSKDSTYSLSSTLTLSKADYEKHKVYACEVTHQGLSSPVTKSFNRGEC
B2: in test [1], the “Akt phosphorylation (%) in Caki-1 cells” value is ≤ 18% and the “relative cell viability (%)” value is ~60%.

B3: huAbF46-H4-A1 (IgG2 Fc) (antibody)
heavy: EVQLVESGGGLVQPGGSLRLSCAASGFTFTDYYMSWVRQAPGKGLEWLGFIRNKANGYTTEYSASVKGRFTISRDNSKNTLYLQMNSLRAEDTAVYYCARDNWFAYWGQGTLVTVSSASTKGPSVFPLAPCSRSTSESTAALGCLVKDYFPEPVTVSWNSGALTSGVHTFPAVLQSSGLYSLSSVVTVPSSNFGTQTYTCNVDHKPSNTKVDKTVERKCCVECPPCPAPPVAGPSVFLFPPKPKDTLMISRTPEVTCVVVDVSHEDPEVQFNWYVDGVEVHNAKTKPREEQFNSTFRVVSVLTVVHQDWLNGKEYKCKVSNKGLPAPIEKTISKTKGQPREPQVYTLPPSREEMTKNQVSLTCLVKGFYPSDIAVEWESNGQPENNYKTTPPMLDSDGSFFLYSKLTVDKSRWQQGNVFSCSVMHEALHNHYTQKSLSLSPGK
light: DIQMTQSPSSLSASVGDRVTITCKSSQSLLASGNQNNYLAWYQQKPGKAPKMLIIWASTRVSGVPSRFSGSGSGTDFTLTISSLQPEDFATYYCQQSYSRPYTFGQGTKVEIKRTVAAPSVFIFPPSDEQLKSGTASVVCLLNNFYPREAKVQWKVDNALQSGNSQESVTEQDSKDSTYSLSSTLTLSKADYEKHKVYACEVTHQGLSSPVTKSFNRGEC
Regarding B3, in test [1], the “Akt phosphorylation (%) in Caki-1 cells” value is ≤ 18% and the “relative cell viability (%)” value is ~60%.

B4: humanized antibody huAbF46 (H4-heavy chain and H4-light chain) (antibody, V domains shown)
VH: EVQLVESGGGLVQPGGSLRLSCAASGFTFTDYYMSWVRQAPGKGLEWLGFIRNKANGYTTEYSASVKGRFTISRDNSKNTLYLQMNSLRAEDTAVYYCARDNWFAYWGQGTLVTVSS
VL: DIQMTQSPSSLSASVGDRVTITCKSSQSLLASGNQNNYLAWHQQKPGKAPKMLIIWASTRVSGVPSRFSGSGSGTDFTLTISSLQPEDFATYYCQQSYSAPLTFGQGTKVEIKR
As usually defined, the Kd is the constant that tells how readily two partners part at equilibrium. A higher Kd goes with weaker binding. The koff is the rate constant with which the complex falls apart. Lower therefore signals a long-lived complex. The term kon denotes a measure of how fast the partners come together. A lower kon goes with slow association. B4: in test [1], the “Akt phosphorylation (%) in Caki-1 cells” value was 29.1% and the “relative cell viability (%)” value worked out at 77%. For the same molecule, in test [2], binding was put at a Kd of 2.19 nM, the koff amounted to 0.000723 s⁻¹ and the association rate constant (kon) is 329000 M⁻¹ s⁻¹.

B5: huAbF46-H4-A1 (antibody, V domains shown)
VH: EVQLVESGGGLVQPGGSLRLSCAASGFTFTDYYMSWVRQAPGKGLEWLGFIRNKANGYTTEYSASVKGRFTISRDNSKNTLYLQMNSLRAEDTAVYYCARDNWFAYWGQGTLVTVSS
VL: DIQMTQSPSSLSASVGDRVTITCKSSQSLLASGNQNNYLAWHQQKPGKAPKMLIIWASTRVSGVPSRFSGSGSGTDFTLTISSLQPEDFATYYCQQSYSRPYTFGQGTKVEIKR
Take B5: in test [1], the “Akt phosphorylation (%) in Caki-1 cells” value was determined as 15.3% and the “relative cell viability (%)” value was found to be 74%. For the same molecule, in test [2], binding was characterised by a dissociation constant (Kd) of 0.06 nM, the off-rate (koff) is 4.53e-05 s⁻¹ and the kon is 739000 M⁻¹ s⁻¹.

B6: L3-11Y (antibody, V domains shown)
VH: EVQLVESGGGLVQPGGSLRLSCAASGFTFTDYYMSWVRQAPGKGLEWLGFIRNKANGYTTEYSASVKGRFTISRDNSKNTLYLQMNSLRAEDTAVYYCARDNWFAYWGQGTLVTVSS
VL: DIQMTQSPSSLSASVGDRVTITCKSSQSLLAWGNQNNYLAWYQQKPGKAPKMLIIWASTRVSGVPSRFSGSGSGTDFTLTISSLQPEDFATYYCQQSYSRPYTFGQGTKVEIKR
With B6, in test [3], the equilibrium dissociation constant (Kd) was < 0.01 nM.
